Sequences and labels used below:
T1: Human CEACAM6 Protein, Human, Recombinant (His Tag) (human, UniProt P40199 35-320)
T1 construct: Bought antigen; also called CEACAM6抗原; CEACAM6蛋白; not shown: His tag
T1 sequence (looked up): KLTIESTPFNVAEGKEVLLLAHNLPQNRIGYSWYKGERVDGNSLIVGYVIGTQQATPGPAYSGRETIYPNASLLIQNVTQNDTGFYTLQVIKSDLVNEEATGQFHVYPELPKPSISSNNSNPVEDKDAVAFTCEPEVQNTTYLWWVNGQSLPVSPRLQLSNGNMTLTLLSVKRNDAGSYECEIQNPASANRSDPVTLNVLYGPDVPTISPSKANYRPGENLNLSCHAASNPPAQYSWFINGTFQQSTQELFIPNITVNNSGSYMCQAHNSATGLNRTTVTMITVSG

B1: 单域抗体NBC25 (VHH)
VHH: QVKLEESGGGLVQPGGSLRLSCAASGQTARAGIMGWFRQAPGKEREFVAAMGRSGASAYYQDSVQGRFTISRDNAQNTVFLQMNSLKPEDTAVYHCAAGNPIALTTAQYYDYWGQGTQVTVSS
notes: Alpaca VHH
B2: 单域抗体NBC36 (VHH)
VHH: QVQLVESGGGLVQAGGSLRLSCVVSGIDFRINNMGWYRQAPGTQRELVASVTPGRNTNYADSVKGRFTISRDNAQNTVYLQMNSLQPEDTAVYSCSAYGPSGAYWGQGTQVTVSS
notes: Alpaca VHH
B3: 单域抗体NBC10 (VHH)
VHH: QVKLEESGGGLVQAGGSLRLSCAASGRTFSNYAMGWFREAPGKEREFVGSSSRSGSFSYLVDSVKGRFTIFRDNDKNTVYLQMNSLKPEDTAVYYCAAQTAIRAGVRDDYDFWGQGAQVTVSS
notes: Alpaca VHH

The target of this experiment is T1, Human CEACAM6 Protein, Human, …. The experiment in a line: phage ELISA, phage-displayed VHH on coated CEACAM6. Background: An ELISA detects its analyte on a solid surface through an enzyme-linked reagent.
Take B1: the binding result is “binds”.
In the case of B2 it was “binds”; in that of B3, “binds”.

The values above are taken from patent CN112409485A (BEIJING NIUAMBO BIOTECHNOLOGY CO LTD, dated 2021).
